Data taken from US20230136228A1 (LAMKAP BIO ALPHA, published 2023).
Numbering of substitutions follows the chain as printed. In names and notes the source's numbering stands.

T1: human CEACAM8 (human, UniProt P31997 35-320)
T1 construct: whole, on cells
T1 sequence (looked up): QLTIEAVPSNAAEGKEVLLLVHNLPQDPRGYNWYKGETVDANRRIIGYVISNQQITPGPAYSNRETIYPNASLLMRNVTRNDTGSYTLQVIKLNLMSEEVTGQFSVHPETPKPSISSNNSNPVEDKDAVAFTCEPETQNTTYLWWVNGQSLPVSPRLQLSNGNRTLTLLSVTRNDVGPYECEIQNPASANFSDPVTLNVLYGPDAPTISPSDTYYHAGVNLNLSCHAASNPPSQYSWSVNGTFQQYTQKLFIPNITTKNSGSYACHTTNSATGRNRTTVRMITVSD

T2: human CEACAM5 (carcinoembryonic antigen, CEA), cell surface (human, UniProt P06731 35-685)
T2 construct: whole, on cells; also called CD66e
T2 sequence (looked up): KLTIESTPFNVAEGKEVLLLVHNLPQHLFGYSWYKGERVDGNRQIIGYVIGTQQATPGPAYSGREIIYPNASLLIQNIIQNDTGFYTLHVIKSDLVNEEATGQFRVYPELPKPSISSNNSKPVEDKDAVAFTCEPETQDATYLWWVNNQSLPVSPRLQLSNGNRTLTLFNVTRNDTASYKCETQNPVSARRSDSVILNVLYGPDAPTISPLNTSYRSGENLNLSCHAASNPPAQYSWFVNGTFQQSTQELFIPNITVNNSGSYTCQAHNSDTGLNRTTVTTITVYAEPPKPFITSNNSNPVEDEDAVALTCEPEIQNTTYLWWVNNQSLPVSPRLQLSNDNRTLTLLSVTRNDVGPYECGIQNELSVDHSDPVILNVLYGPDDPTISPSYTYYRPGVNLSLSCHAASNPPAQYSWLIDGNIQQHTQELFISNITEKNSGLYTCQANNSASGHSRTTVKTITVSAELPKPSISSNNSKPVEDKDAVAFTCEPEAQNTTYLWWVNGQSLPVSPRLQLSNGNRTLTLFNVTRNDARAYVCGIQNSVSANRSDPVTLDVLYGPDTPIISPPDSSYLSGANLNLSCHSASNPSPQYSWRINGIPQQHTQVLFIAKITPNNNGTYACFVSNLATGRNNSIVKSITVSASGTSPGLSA

B1: AB17L3-1/N (bispecific antibody, human IgG1, kappa, lambda, L234A L235A)
heavy: EVQLVESGGGLVQPGGSLKLSCAASGFTFNTYAMNWVRQAPGKGLEWVGRIRSKYNNYATYYADSVKDRFTISRDDSKNTAYLQMNSLKTEDTAVYYCVRHGNFGNSYVSWFAYWGQGTLVTVSSASTKGPSVFPLAPSSKSTSGGTAALGCLVKDYFPEPVTVSWNSGALTSGVHTFPAVLQSSGLYSLSSVVTVPSSSLGTQTYICNVNHKPSNTKVDKRVEPKSCDKTHTCPPCPAPEAAGGPSVFLFPPKPKDTLMISRTPEVTCVVVDVSHEDPEVKFNWYVDGVEVHNAKTKPREEQYNSTYRVVSVLTVLHQDWLNGKEYKCKVSNKALAAPIEKTISKAKGQPREPQVYTLPPSREEMTKNQVSLTCLVKGFYPSDIAVEWESNGQPENNYKTTPPVLDSDGSFFLYSKLTVDKSRWQQGNVFSCSVMHEALHNHYTQKSLSLSPG
light 1: EIVLTQSPATLSLSPGERATLSCRASQSVNSNLNWYQQKPGQAPRLLIYHGSNRATGIPARFSGSGSGTDFTLTISSLEPEDFAVYYCQQFDYFKEHNTFGQGTKVEIKRTVAAPSVFIFPPSDEQLKSGTASVVCLLNNFYPREAKVQWKVDNALQSGNSQESVTEQDSKDSTYSLSSTLTLSKADYEKHKVYACEVTHQGLSSPVTKSFNRGEC
light 2: QTVVTQEPSLTVSPGGTVTLTCRSSTGAVTTSNYANWFQQKPGQAPRGLIGGTNKRAPGTPARFSGSLLGGKAALTLSGAQPEDEAEYYCALWYKQRWVFGGGTKLTVLGQPKAAPSVTLFPPSSEELQANKATLVCLISDFYPGAVTVAWKADSSPVKAGVETTTPSKQSNNKYAASSYLSLTPEQWKSHRSYSCQVTHEGSTVEKTVAPTECS
notes: Kappa-lambda body, lead optimization wave 1
B2: AB1L3-1/N (bispecific antibody, human IgG1, kappa, lambda, L234A L235A)
heavy: B1 heavy
light 1: B1 light 1 with Y93L, F94R, K95H
light 2: B1 light 2
notes: Kappa-lambda body: common heavy chain (hIgG1 L234A+L235A+P329A), kappa CEA light chain AB1, lambda CD3 light chain L3-1 (1A4); also called parental KL bispecific antibody
B3: AB72L3-1/N (bispecific antibody, human IgG1, kappa, lambda, L234A L235A)
heavy: B1 heavy
light 1: B1 light 1 with G51S, S52T, A55P, T56R, H97Y
light 2: B1 light 2
notes: Kappa-lambda body, lead optimization wave 2

Columns and labels:
human CD3ε [1] = biological target: T3, human CD3ε (human, UniProt P07766 23-207); experiment: flow cytometry, HUT-78 cells
T3 construct: whole, on cells; Present on cells as part of the CD3/TCR complex; also called CD3 epsilon
T3 sequence (P07766 23-207): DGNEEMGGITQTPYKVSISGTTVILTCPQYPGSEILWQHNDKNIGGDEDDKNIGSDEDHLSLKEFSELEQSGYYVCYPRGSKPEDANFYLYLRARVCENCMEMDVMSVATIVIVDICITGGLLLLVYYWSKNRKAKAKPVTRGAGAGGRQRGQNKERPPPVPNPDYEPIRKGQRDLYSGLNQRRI

human CEACAM8 = biological target: T1, human CEACAM8; experiment: flow cytometry, transfected PEAK cells
Outline: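 PEAK cells transiently expressing full-length CEACAM, with non-transfected PEAK as negative control, incubated 15 min at 4° C with antibody (30 pM-500 nM range), then anti-human IgG secondary. Live cells gated by TOPRO-3; MFI read by flow cytometry, dose-response curves fitted.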

[2] = biological target: T2, human CEACAM5 (carcinoembryonic …); experiment: flow cytometry, MKN-45 and/or HPAF-II cells
human CD3ε [3] = biological target: T3, human CD3ε; experiment: flow cytometry, primary CD4+ and CD8+ T-cells

Row | Binder | binding result (human CD3ε [1]) | binding result (human CEACAM8) | binding higher than TCB2014 (at 100 nM) [2] | binding result (human CD3ε [3])
1 | B1 | binds | no binding (tested: 10 mcg/ml) | ≥ 40% | 
2 | B2 |  | no binding (tested: 10 mcg/ml) |  | 
3 | B3 |  |  |  | binds
